Measured values taken from PMC8754650, “Structural basis of DNA methylation-dependent site selectivity of the Epstein–Barr virus lytic switch protein ZEBRA/Zta/BZLF1”.

What was measured:
GCN4 DBD WT = GCN4 DBD WT (Saccharomyces cerevisiae, UniProt P03069 228-281); test: FP; apparent; FP: PBS (137 mM NaCl, 2.7 mM KCl, 10 mM Na2HPO4, 1.8 mM KH2PO4) pH 7.4, 20 C, 10 nM duplex, 28 ng/ul herring testes DNA competitor; EMSA per cited ref with competitor DNA; conditions: protein: recombinant; tags: MBP; chain copies: 2; label: rhodamine 5' of strand 1; 5' overhang 1 nt each end
ZEBRA DBD WT = ZEBRA DBD WT (Epstein-Barr virus, UniProt P03206 175-236); test: FP; apparent, Hill n=2; FP: PBS (137 mM NaCl, 2.7 mM KCl, 10 mM Na2HPO4, 1.8 mM KH2PO4) pH 7.4, 20 C, 10 nM duplex, 28 ng/ul herring testes DNA competitor; EMSA per cited ref with competitor DNA; conditions: protein: recombinant; tags: MBP; chain copies: 2; label: rhodamine 5' of strand 1; 5' overhang 1 nt each end
Strep/FLAG:ZEBRA [1] = biological target: T1, Strep/FLAG:ZEBRA (Epstein-Barr virus, UniProt P03206 149-245); test: EMSA; between ZRE2 and meZRE2; slightly stronger than hemi C-2'; FP: PBS (137 mM NaCl, 2.7 mM KCl, 10 mM Na2HPO4, 1.8 mM KH2PO4) pH 7.4, 20 C, 10 nM duplex, 28 ng/ul herring testes DNA competitor; EMSA per cited ref with competitor DNA; conditions: protein: recombinant; tags: StrepII/FLAG; chain copies: 2; 5' overhang 2 nt each end
Strep/FLAG:ZEBRA [2] = biological target: T1, Strep/FLAG:ZEBRA; test: EMSA; between ZRE2 and meZRE2; FP: PBS (137 mM NaCl, 2.7 mM KCl, 10 mM Na2HPO4, 1.8 mM KH2PO4) pH 7.4, 20 C, 10 nM duplex, 28 ng/ul herring testes DNA competitor; EMSA per cited ref with competitor DNA; conditions: protein: recombinant; tags: StrepII/FLAG; chain copies: 2; 5' overhang 2 nt each end
Strep/FLAG:ZEBRA [3] = biological target: T1, Strep/FLAG:ZEBRA; test: EMSA; tightest; FP: PBS (137 mM NaCl, 2.7 mM KCl, 10 mM Na2HPO4, 1.8 mM KH2PO4) pH 7.4, 20 C, 10 nM duplex, 28 ng/ul herring testes DNA competitor; EMSA per cited ref with competitor DNA; conditions: protein: recombinant; tags: StrepII/FLAG; chain copies: 2; 5' overhang 2 nt each end
Strep/FLAG:ZEBRA [4] = biological target: T1, Strep/FLAG:ZEBRA; test: EMSA; intermediate, similar to hemi-methylated sites; FP: PBS (137 mM NaCl, 2.7 mM KCl, 10 mM Na2HPO4, 1.8 mM KH2PO4) pH 7.4, 20 C, 10 nM duplex, 28 ng/ul herring testes DNA competitor; EMSA per cited ref with competitor DNA; conditions: protein: recombinant; tags: StrepII/FLAG; chain copies: 2; 5' overhang 2 nt each end

T1 sequence (P03206 149-245): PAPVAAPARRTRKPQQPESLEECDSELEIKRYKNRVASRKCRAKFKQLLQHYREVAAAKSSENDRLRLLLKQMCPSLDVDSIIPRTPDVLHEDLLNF
Chain of GCN4 DBD WT (P03069 228-281): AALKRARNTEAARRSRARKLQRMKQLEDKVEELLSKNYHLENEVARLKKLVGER
Chain of ZEBRA DBD WT (P03206 175-236): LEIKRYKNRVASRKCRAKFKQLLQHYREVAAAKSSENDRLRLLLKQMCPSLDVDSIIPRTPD

B1: AP-1 (FP) (dsDNA)
DNA 1: AGCTTATGAGTCATTTTAT
DNA 2: AATAAAATGACTCATAAGC
- Kd (GCN4 DBD WT): 77.9 ± 8.8 nM
- Kd (ZEBRA DBD WT): 271 ± 25 nM

B2: hemi-me C1 ZRE2 (EMSA) (dsDNA)
DNA 1: ATAGCTTATGAGCGATTTTATC
DNA 2: ATGATAAAATCGCTCATAAGCT
modifications: 5mC at position 13 of strand 1
- binding result (Strep/FLAG:ZEBRA [1]): binds

B3: hemi-me C-2' ZRE2 (EMSA) (dsDNA)
DNA 1: ATAGCTTATGAGCGATTTTATC
DNA 2: ATGATAAAATCGCTCATAAGCT
modifications: 5mC at position 11 of strand 2
- binding result (Strep/FLAG:ZEBRA [2]): binds

B4: meZRE2 (EMSA) (dsDNA)
DNA 1: ATAGCTTATGAGCGATTTTATC
DNA 2: ATGATAAAATCGCTCATAAGCT
modifications: 5mC at position 13 of strand 1 and 11 of strand 2
- binding result (Strep/FLAG:ZEBRA [3]): binds

B5: oriLyt ZRE5 (EMSA) (dsDNA)
DNA 1: ATAGCTTATGTGCAATTTTATC
DNA 2: ATGATAAAATTGCACATAAGCT
- binding result (Strep/FLAG:ZEBRA [4]): binds
